Experimental data reported in article PMC9223585, “Structural and Functional Insights into CP2c Transcription Factor Complexes” (International Journal of Molecular Sciences, 2022).

Target: the molecule itself
Test: cross-linking + co-IP; DSP XL-WB: nuclear extracts of MDA-MB-231 cells, Benzonase, 2 mM DSP 30 min at room temperature, IP with CP2c, CP2b or PIAS1 antibodies, sequential Western blot with and without DTT

B1: CP2c (TFCP2), endogenous human (natural protein, human (endogenous in MDA-MB-231), UniProt Q12800-1 1-502, looked up)
chain: MAWALKLPLADEVIESGLVQDFDASLSGIGQELGAGAYSMSDVLALPIFKQEESSLPPDNENKILPFQYVLCAATSPAVKLHDETLTYLNQGQSYEIRMLDNRKLGELPEINGKLVKSIFRVVFHDRRLQYTEHQQLEGWRWNRPGDRILDIDIPMSVGIIDPRANPTQLNTVEFLWDPAKRTSVFIQVHCISTEFTMRKHGGEKGVPFRVQIDTFKENENGEYTEHLHSASCQIKVFKPKGADRKQKTDREKMEKRTPHEKEKYQPSYETTILTECSPWPEITYVNNSPSPGFNSSHSSFSLGEGNGSPNHQPEPPPPVTDNLLPTTTPQEAQQWLHRNRFSTFTRLFTNFSGADLLKLTRDDVIQICGPADGIRLFNALKGRMVRPRLTIYVCQESLQLREQQQQQQQQQQKHEDGDSNGTFFVYHAIYLEELTAVELTEKIAQLFSISPCQISQIYKQGPTGIHVLISDEMIQNFQEEACFILDTMKAETNDSYHIILK
notes: transcription factor CP2c (TFCP2, LBP-1c), endogenous in the human breast cancer line MDA-MB-231; both are human cells; also called α-CP2; LSF; source: endogenous, MDA-MB-231 nuclear and cytosolic lysate
stoichiometry N: 4
